In PMC10853069:

Assays:
[1] = biological target: Taxol-stabilized microtubules polymerized from purified porcine tubulin (porcine) (UniProt P02550); assay: cross-linking
[2] = biological target: Taxol-stabilized microtubules polymerized from purified porcine tubulin (porcine) (UniProt P02550); assay: co-sedimentation

Substance | MEI-2*tubulin crosslinked band, percent of the WT fragment [1] [%] | MEI-2*tubulin crosslinked band, percent of WT [1] [%] | Kd [2] [µM]
MBP-MEI-2 1–90 K77D-K78D (from UniProt O44740 1-90) (domain or fragment) | 87 |  | 
MBP-MEI-2 1–90 K77A-K78A (from UniProt O44740 1-90) (domain or fragment) | 84 |  | 
MBP-MEI-2 full length 6KA (K8A-K9A K77A-K78A K274A-K275A) (from UniProt O44740 1-280) (natural protein) |  | 53 | 3.68
MBP-MEI-2 full length 6KD (K8D-K9D K77D-K78D K274D-K275D) (from UniProt O44740 1-280) (natural protein) |  | 6 | 6.15
